Reference: the supplement of paper PMC10567573
± gives the standard deviation.

Assay: protein stability index of a GFP-peptide fusion (GPS, HEK-293T) (PSI 1-6); higher = more stable
Settings: c terminus: a fixed tail appended
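Further: 24-mer peptide tiles fused after GFP, lentivirally expressed, FACS-sorted into six equal bins by GFP/DsRed ratio, decoded by Illumina sequencing, PSI is the read-weighted mean bin number.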

Sequence | protein stability index (treatment: DMSO) | protein stability index (treatment: MLN4924 1 uM, 8 h)
DLGLAPRELAERGVRIVSRGRTQL [PCDHGA10] | 3.75 ± 0.16 | 3.81 ± 0.25
NPALEGLTQPLQGGTPHCEPCQLP [DNAAF3] | 4.89 ± 0.36 | 4.97 ± 0.24
PIAPEVEDPEENPYGPPPDAVQTS [RBBP5] | 5.56 ± 0.17 | 5.54 ± 0.19
MGNILTCCINSHCGWPRGKDAPCY [DRICH1] | 2.44 ± 0.39 | 2.08 ± 0.15
EDTSNDESSILGTDIDLQTIDNDI [M1AP] | 5.56 ± 0.093 | 5.56 ± 0.18
RYDPEPKSKWDEEWDKNKSAFPFS [CLINT1] | 3.84 ± 0.36 | 3.89 ± 0.21
VPETIHDELQQSFQKSHNSLQRWE [PRIM1] | 3.88 ± 0.16 | 3.75 ± 0.24
LRDIRAQYESIAAKNLQEAEEWYK [PRPH] | 4.24 ± 0.24 | 4.33 ± 0.41
LQFLYTGQLDEKEKDLVGLAQIAE [RHOBTB1] | 2.38 ± 0.29 | 2.83 ± 0.25
ADSLDFDETFLATSFLQHPWDESG [FOXJ1] | 4.22 ± 0.087 | 4.08 ± 0.13
PDYGVPSSAASLIDFLRVVRNQQS [PTPN9] | 2.84 ± 0.24 | 3.14 ± 0.25
EIKLVSDVTADSKVLEALKLKGAE [PLD5] | 4.31 ± 0.41 | 4.34 ± 0.51
KNELERDSKIVVPPLPGKALKRQL [SNX12] | 4.5 ± 0.26 | 4.56 ± 0.2
ISEAQLKDRETSKVIYDFIEKTGG [WASL] | 3.42 ± 0.13 | 3.67 ± 0.15
LQSCGDLHTFTPAGRPRAERRPRR [FAM189A2] | 4.95 ± 0.27 | 5.07 ± 0.23
VLRSRIRFIHLVTGCVLGSSGKVL [POMT2] | 2.62 ± 0.59 | 2.63 ± 0.76
ALGTSWTLPLQDRELGPEELDELQ [CABP4] | 5.4 ± 0.097 | 5.23 ± 0.16

Sequence | protein stability index (treatment: DMSO) | protein stability index (treatment: MLN4924 1 uM, 8 h)
ADESVLWQLFGPFGAVTNVKVIRD [ELAVL3] | 2.23 ± 0.18 | 2.35 ± 0.33
IFGASSVDFSLSGRLLFAGYNDYT [GNB5] | 2.6 ± 0.63 | 2.12 ± 0.49
EEEPGVRNGMASEGLNSSLCSPGH [PSD2] | 5.1 ± 0.23 | 5.26 ± 0.13
PHVALAVRYNRVGILRRILRTLRD [ANKRD9] | 2.73 ± 0.073 | 2.84 ± 0.3
NVEMDATPGIDLTRVLAEMREQYE [KRT13] | 4.47 ± 0.17 | 4.75 ± 0.32
RQKKLMHKLQEEKAFREEMKIFRE [CCDC70] | 3.37 ± 0.28 | 3.59 ± 0.35
SGRVKRERDREREPEAASSRGSPV [USP39] | 5.12 ± 0.18 | 5.33 ± 0.11
SEKASKKYVSKELAKEIRVKAEPF [EIF5] | 4.29 ± 0.28 | 4.36 ± 0.18
DVPTIQEKVNEGKYRSYEEFKADA [ZMYND11] | 5.21 ± 0.3 | 5.26 ± 0.15
YTMLLGRPPFETTNLKETYRCIRE [PLK2] | 2.32 ± 0.3 | 2.4 ± 0.22
VFKQAKDKVSDGVTKSPEKRSSLP [MAP2] | 4.92 ± 0.16 | 4.93 ± 0.099
MEKIPFVLGGNLQGGELVVAYPYD [CPXM2] | 2.81 ± 0.48 | 2.79 ± 0.77
ELREACDYLCISFEYSTIKCRDLS [BTBD10] | 3.06 ± 0.21 | 3.13 ± 1
PRVPEEAAQDRPMSPGDCPPETTE [YJU2B] | 5.46 ± 0.26 | 5.4 ± 0.37
AGEDNDELIDNLKEAQYIRTELVE [PCMTD2] | 5.13 ± 0.18 | 5.02 ± 0.17
QQLLHHARNGNAEEVRQLLETMAR [OSBPL1A] | 3.15 ± 0.38 | 3.78 ± 0.3
